Literature values, collected in paper PMC6440808.
Read-outs that look alike come from different tables or passages of the source.

Legend:
[1] = molecular target: C4b (Homo sapiens) (UniProt P0C0L4)
[2] = molecular target: C4b (Homo sapiens) (UniProt P0C0L4); remark: listed apart in the source

Chain of UniProt P0C0L4 (P0C0L4 20-1744, chain 1 of 2): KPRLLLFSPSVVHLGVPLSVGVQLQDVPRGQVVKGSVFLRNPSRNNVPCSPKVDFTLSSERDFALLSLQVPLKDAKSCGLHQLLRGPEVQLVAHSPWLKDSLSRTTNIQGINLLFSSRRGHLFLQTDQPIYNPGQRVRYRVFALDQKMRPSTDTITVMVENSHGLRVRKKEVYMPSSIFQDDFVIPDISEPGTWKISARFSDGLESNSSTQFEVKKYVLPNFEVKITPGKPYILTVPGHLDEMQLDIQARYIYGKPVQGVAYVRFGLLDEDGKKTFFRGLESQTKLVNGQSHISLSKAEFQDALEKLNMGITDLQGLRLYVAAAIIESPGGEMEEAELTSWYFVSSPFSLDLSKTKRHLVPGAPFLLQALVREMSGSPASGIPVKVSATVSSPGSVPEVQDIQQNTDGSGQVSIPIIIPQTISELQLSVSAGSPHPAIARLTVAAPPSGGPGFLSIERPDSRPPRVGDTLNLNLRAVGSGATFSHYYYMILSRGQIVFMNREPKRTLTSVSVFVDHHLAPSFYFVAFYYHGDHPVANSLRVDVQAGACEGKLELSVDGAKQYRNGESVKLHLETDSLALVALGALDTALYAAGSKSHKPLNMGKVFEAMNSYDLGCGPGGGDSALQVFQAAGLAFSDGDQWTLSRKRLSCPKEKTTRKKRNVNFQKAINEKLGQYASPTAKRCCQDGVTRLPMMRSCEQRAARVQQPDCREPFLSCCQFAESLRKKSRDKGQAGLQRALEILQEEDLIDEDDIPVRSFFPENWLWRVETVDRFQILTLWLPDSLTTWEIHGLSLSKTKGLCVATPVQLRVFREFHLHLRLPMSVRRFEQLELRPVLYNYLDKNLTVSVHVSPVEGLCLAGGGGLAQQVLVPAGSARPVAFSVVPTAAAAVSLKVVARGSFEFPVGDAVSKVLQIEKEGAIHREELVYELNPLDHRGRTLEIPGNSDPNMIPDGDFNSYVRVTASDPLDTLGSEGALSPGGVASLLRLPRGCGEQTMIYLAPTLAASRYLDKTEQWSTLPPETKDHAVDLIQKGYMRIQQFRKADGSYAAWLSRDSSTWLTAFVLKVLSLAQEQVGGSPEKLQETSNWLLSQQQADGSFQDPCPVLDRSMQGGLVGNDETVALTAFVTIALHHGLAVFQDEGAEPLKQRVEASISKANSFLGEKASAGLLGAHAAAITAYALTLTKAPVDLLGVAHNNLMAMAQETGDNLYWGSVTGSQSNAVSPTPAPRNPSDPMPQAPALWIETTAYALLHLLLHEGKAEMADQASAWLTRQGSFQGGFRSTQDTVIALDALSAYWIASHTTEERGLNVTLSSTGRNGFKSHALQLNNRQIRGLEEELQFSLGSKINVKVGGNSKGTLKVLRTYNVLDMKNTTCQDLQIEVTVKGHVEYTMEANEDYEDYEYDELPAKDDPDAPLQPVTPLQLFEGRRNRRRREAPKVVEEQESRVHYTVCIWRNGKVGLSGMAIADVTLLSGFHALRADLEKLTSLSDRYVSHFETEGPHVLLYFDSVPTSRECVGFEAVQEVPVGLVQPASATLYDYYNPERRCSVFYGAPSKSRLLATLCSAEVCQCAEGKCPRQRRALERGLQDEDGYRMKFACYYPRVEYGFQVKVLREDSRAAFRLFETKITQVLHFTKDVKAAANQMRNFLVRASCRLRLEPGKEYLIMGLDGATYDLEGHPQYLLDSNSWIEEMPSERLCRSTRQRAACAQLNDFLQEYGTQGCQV
Chain of UniProt P0C0L4 (P0C0L5 20-1744, chain 2 of 2, further chain): as the sequence (P0C0L4 20-1744, chain 1 of 2) above, with A888T, D1054G, P1101L, C1102S, L1105I, D1106H, N1157S, V1188A, L1191R, S1267A counted along it

| Substance | Kd [1] [µM] | Kd [2] [µM] |
| --- | --- | --- |
| Eap domain 3 or 4 (individual) domain 3 / domain 4 (from UniProt Q2FWW1) | 40 |  |
| Eap34 domains 3-4 (from UniProt Q99QS1) |  | 0.525 |
